Source: publication PMC7367873, “Dissecting the sequence determinants for dephosphorylation by the catalytic subunits of phosphatases PP1 and PP2A” (Nature Communications, 2020)
Blank lines part the entries; values can stand above or below the molecule they belong to.

Experiments:
[1] = test system: GFP-14-3-3β and its binding proteins; assay: GFP-14-3-3β co-IP with LC-MS/MS label-free quantification, untreated versus PP1c-treated; set-up: species or system human; details: pairwise comparison PP1 vs untreated
[2] = test system: GFP-14-3-3β; assay: GFP-14-3-3β co-IP with LC-MS/MS, untreated GFP-14-3-3β versus GFP control (14-3-3 interactome); format: binding, human; details: pairwise comparison untreated vs GFP
[3] = log2 difference, label-free quantification, 3 replicates each

- Difference (log2), PP1 vs untreated [1]: 0.1336 log2
B1: PRPF6 (protein, UniProt O94906 1-941, looked up)
Pre-mRNA-processing factor 6: MNKKKKPFLGMPAPLGYVPGLGRGATGFTTRSDIGPARDANDPVDDRHAPPGKRTVGDQMKKNQAADDDDEDLNDTNYDEFNGYAGSLFSSGPYEKDDEEADAIYAALDKRMDERRKERREQREKEEIEKYRMERPKIQQQFSDLKRKLAEVTEEEWLSIPEVGDARNKRQRNPRYEKLTPVPDSFFAKHLQTGENHTSVDPRQTQFGGLNTPYPGGLNTPYPGGMTPGLMTPGTGELDMRKIGQARNTLMDMRLSQVSDSVSGQTVVDPKGYLTDLNSMIPTHGGDINDIKKARLLLKSVRETNPHHPPAWIASARLEEVTGKLQVARNLIMKGTEMCPKSEDVWLEAARLQPGDTAKAVVAQAVRHLPQSVRIYIRAAELETDIRAKKRVLRKALEHVPNSVRLWKAAVELEEPEDARIMLSRAVECCPTSVELWLALARLETYENARKVLNKARENIPTDRHIWITAAKLEEANGNTQMVEKIIDRAITSLRANGVEINREQWIQDAEECDRAGSVATCQAVMRAVIGIGIEEEDRKHTWMEDADSCVAHNALECARAIYAYALQVFPSKKSVWLRAAYFEKNHGTRESLEALLQRAVAHCPKAEVLWLMGAKSKWLAGDVPAARSILALAFQANPNSEEIWLAAVKLESENDEYERARRLLAKARSSAPTARVFMKSVKLEWVQDNIRAAQDLCEEALRHYEDFPKLWMMKGQIEEQKEMMEKAREAYNQGLKKCPHSTPLWLLLSRLEEKIGQLTRARAILEKSRLKNPKNPGLWLESVRLEYRAGLKNIANTLMAKALQECPNSGILWSEAIFLEARPQRRTKSVDALKKCEHDPHVLLAVAKLFWSQRKITKAREWFHRTVKIDSDLGDAWAFFYKFELQHGTEEQQEEVRKRCESAEPRHGELWCAVSKDIANWQKKIGDILRLVAGRIKNTF
- Difference (log2), untreated vs GFP [2]: 1.324 log2

- Difference (log2), PP1 vs untreated [1]: 0.1347 log2
B2: MAGED2 (protein, UniProt Q9UNF1 2-606, looked up)
Melanoma-associated antigen D2: SDTSESGAGLTRFQAEASEKDSSSMMQTLLTVTQNVEVPETPKASKALEVSEDVKVSKASGVSKATEVSKTPEAREAPATQASSTTQLTDTQVLAAENKSLAADTKKQNADPQAVTMPATETKKVSHVADTKVNTKAQETEAAPSQAPADEPEPESAAAQSQENQDTRPKVKAKKARKVKHLDGEEDGSSDQSQASGTTGGRRVSKALMASMARRASRGPIAFWARRASRTRLAAWARRALLSLRSPKARRGKARRRAAKLQSSQEPEAPPPRDVALLQGRANDLVKYLLAKDQTKIPIKRSDMLKDIIKEYTDVYPEIIERAGYSLEKVFGIQLKEIDKNDHLYILLSTLEPTDAGILGTTKDSPKLGLLMVLLSIIFMNGNRSSEAVIWEVLRKLGLRPGIHHSLFGDVKKLITDEFVKQKYLDYARVPNSNPPEYEFFWGLRSYYETSKMKVLKFACKVQKKDPKEWAAQYREAMEADLKAAAEAAAEAKARAEIRARMGIGLGSENAAGPCNWDEADIGPWAKARIQAGAEAKAKAQESGSASTGASTSTNNSASASASTSGGFSAGASLTATLTFGLFAGLGGAGASTSGSSGACGFSYK
- Difference (log2), untreated vs GFP [2]: 0.4555 log2

- Difference (log2), PP1 vs untreated [1, 3]: 2.003
B3: TRIM26 (protein, UniProt Q12899 1-539, looked up)
Tripartite motif-containing …: MATSAPLRSLEEEVTCSICLDYLRDPVTIDCGHVFCRSCTTDVRPISGSRPVCPLCKKPFKKENIRPVWQLASLVENIERLKVDKGRQPGEVTREQQDAKLCERHREKLHYYCEDDGKLLCVMCRESREHRPHTAVLMEKAAQPHREKILNHLSTLRRDRDKIQGFQAKGEADILAALKKLQDQRQYIVAEFEQGHQFLREREEHLLEQLAKLEQELTEGREKFKSRGVGELARLALVISELEGKAQQPAAELMQDTRDFLNRYPRKKFWVGKPIARVVKKKTGEFSDKLLSLQRGLREFQGKLLRDLEYKTVSVTLDPQSASGYLQLSEDWKCVTYTSLYKSAYLHPQQFDCEPGVLGSKGFTWGKVYWEVEVEREGWSEDEEEGDEEEEGEEEEEEEEAGYGDGYDDWETDEDEESLGDEEEEEEEEEEEVLESCMVGVARDSVKRKGDLSLRPEDGVWALRLSSSGIWANTSPEAELFPALRPRRVGIALDYEGGTVTFTNAESQELIYTFTATFTRRLVPFLWLKWPGTRLLLRP
- Difference (log2), untreated vs GFP [2, 3]: -0.363

- Difference (log2), PP1 vs untreated [1]: 0.1214 log2
B4: ADAR (protein, UniProt P55265 1-1226, looked up)
Double-stranded RNA-specific …: MNPRQGYSLSGYYTHPFQGYEHRQLRYQQPGPGSSPSSFLLKQIEFLKGQLPEAPVIGKQTPSLPPSLPGLRPRFPVLLASSTRGRQVDIRGVPRGVHLRSQGLQRGFQHPSPRGRSLPQRGVDCLSSHFQELSIYQDQEQRILKFLEELGEGKATTAHDLSGKLGTPKKEINRVLYSLAKKGKLQKEAGTPPLWKIAVSTQAWNQHSGVVRPDGHSQGAPNSDPSLEPEDRNSTSVSEDLLEPFIAVSAQAWNQHSGVVRPDSHSQGSPNSDPGLEPEDSNSTSALEDPLEFLDMAEIKEKICDYLFNVSDSSALNLAKNIGLTKARDINAVLIDMERQGDVYRQGTTPPIWHLTDKKRERMQIKRNTNSVPETAPAAIPETKRNAEFLTCNIPTSNASNNMVTTEKVENGQEPVIKLENRQEARPEPARLKPPVHYNGPSKAGYVDFENGQWATDDIPDDLNSIRAAPGEFRAIMEMPSFYSHGLPRCSPYKKLTECQLKNPISGLLEYAQFASQTCEFNMIEQSGPPHEPRFKFQVVINGREFPPAEAGSKKVAKQDAAMKAMTILLEEAKAKDSGKSEESSHYSTEKESEKTAESQTPTPSATSFFSGKSPVTTLLECMHKLGNSCEFRLLSKEGPAHEPKFQYCVAVGAQTFPSVSAPSKKVAKQMAAEEAMKALHGEATNSMASDNQPEGMISESLDNLESMMPNKVRKIGELVRYLNTNPVGGLLEYARSHGFAAEFKLVDQSGPPHEPKFVYQAKVGGRWFPAVCAHSKKQGKQEAADAALRVLIGENEKAERMGFTEVTPVTGASLRRTMLLLSRSPEAQPKTLPLTGSTFHDQIAMLSHRCFNTLTNSFQPSLLGRKILAAIIMKKDSEDMGVVVSLGTGNRCVKGDSLSLKGETVNDCHAEIISRRGFIRFLYSELMKYNSQTAKDSIFEPAKGGEKLQIKKTVSFHLYISTAPCGDGALFDKSCSDRAMESTESRHYPVFENPKQGKLRTKVENGEGTIPVESSDIVPTWDGIRLGERLRTMSCSDKILRWNVLGLQGALLTHFLQPIYLKSVTLGYLFSQGHLTRAICCRVTRDGSAFEDGLRHPFIVNHPKVGRVSIYDSKRQSGKTKETSVNWCLADGYDLEILDGTRGTVDGPRNELSRVSKKNIFLLFKKLCSFRYRRDLLRLSYGEAKKAARDYETAKNYFKKGLKDMGYGNWISKPQEEKNFYLCPV
- Difference (log2), untreated vs GFP [2]: 1.541 log2

- Difference (log2), PP1 vs untreated [1]: 0.1504 log2
B5: DDX28 (protein, UniProt Q9NUL7 1-540, looked up)
Probable ATP-dependent RNA …: MALTRPVRLFSLVTRLLLAPRRGLTVRSPDEPLPVVRIPVALQRQLEQRQSRRRNLPRPVLVRPGPLLVSARRPELNQPARLTLGRWERAPLASQGWKSRRARRDHFSIERAQQEAPAVRKLSSKGSFADLGLEPRVLHALQEAAPEVVQPTTVQSSTIPSLLRGRHVVCAAETGSGKTLSYLLPLLQRLLGQPSLDSLPIPAPRGLVLVPSRELAQQVRAVAQPLGRSLGLLVRDLEGGHGMRRIRLQLSRQPSADVLVATPGALWKALKSRLISLEQLSFLVLDEADTLLDESFLELVDYILEKSHIAEGPADLEDPFNPKAQLVLVGATFPEGVGQLLNKVASPDAVTTITSSKLHCIMPHVKQTFLRLKGADKVAELVHILKHRDRAERTGPSGTVLVFCNSSSTVNWLGYILDDHKIQHLRLQGQMPALMRVGIFQSFQKSSRDILLCTDIASRGLDSTGVELVVNYDFPPTLQDYIHRAGRVGRVGSEVPGTVISFVTHPWDVSLVQKIELAARRRRSLPGLASSVKEPLPQAT
- Difference (log2), untreated vs GFP [2]: 0.1408 log2
